This note sets out measurements from patent publication US20260109773A1 (HARPOON THERAPEUTICS, published 2026).

First the molecules themselves.
B4: human BCMA on BCMA-expressing cell lines (receptor)
chain: MLQMAGQCSQNEYFDSLLHACIPCQLRCSSNTPPLTCQRYCNASVTNSVKGTNAILWTCLGLSLIISLAVFVLMFLLRKINSEPLKDEFKNTGSGLLGMANIDLEKSRTGDEIILPRGLEYTVEECTCEDCIKSKPKVDSDHCFPLPAMEEGATILVTTKTNDYCKSLPAALSATEIEKSISAR
notes: BCMA as expressed by human tumour cell lines; also called BCMA expressing cells (EJM, Jeko1, MOLP-8, OPM-2, NCI-H929, RPMI-8226)

The target of experiment [1] is T1, 02B05 TriTAC.
T1 construct: TriTAC trispecific; His6 in entry; also called exemplary BCMA targeting trispecific protein (02B05)
Put plainly: Octet; 2.5 nM cynomolgus CD3ε-Fc on streptavidin tips; 15 mg/ml HSA; n=2. As for the experimental part:
(§1) The affinities were measured using an Octet instrument. For these measurements, streptavidin tips were first loaded with 2.5 nM human BCMA-Fc, 2.5 nM cynomolgous BCMA-Fc, 2.5 nM human CD3ε-Fc, 2.5 nM cynomolgus CD3ε-Fc, 50 nM human serum albumin (HSA), 50 nM cynomolgus serum albumin, or 50 nM mouse serum albumin. […] Average calculated KD values from these studies are provided in Table 4 (n indicates the number of independent measurements, n/d indicates no binding detected under the conditions tested).
A general note: BLI is a label-free optical method that tracks binding on a fibre tip over time.

The target of experiment [2] is T1, 02B05 TriTAC. Put plainly: Octet; 50 nM cynomolgus serum albumin on streptavidin tips; n=1. How it is done: as §1
In experiment [3] the target is T1, 02B05 TriTAC. Put plainly: Octet; 2.5 nM human CD3ε-Fc on streptavidin tips; 15 mg/ml HSA; n=2. As for the experimental part: as §1
Experiment [4] addresses T1, 02B05 TriTAC. Briefly: flow cytometry on NCI-H929 cells (BCMA RNA FPKM 1931); bound protein detected with an Alexa Fluor 647 antibody against the anti-albumin domain; negative control: GFP trispecific protein. In general terms: A flow cytometer gives signals particle by particle.
In experiment [5] the target is B4. Briefly: cell-based or functional assay.
Experiment [6] concerns the target T2, human BCMA protein (human, UniProt Q02223 1-54, limits assumed).
T2 sequence: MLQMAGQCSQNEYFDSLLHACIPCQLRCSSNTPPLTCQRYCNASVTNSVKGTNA
Put plainly: affinity to human BCMA protein; method not stated.

For orientation: Kd means the concentration at which binding is half-saturated. A lower Kd goes with tighter binding.

T1 sequence (chain, as listed by the source): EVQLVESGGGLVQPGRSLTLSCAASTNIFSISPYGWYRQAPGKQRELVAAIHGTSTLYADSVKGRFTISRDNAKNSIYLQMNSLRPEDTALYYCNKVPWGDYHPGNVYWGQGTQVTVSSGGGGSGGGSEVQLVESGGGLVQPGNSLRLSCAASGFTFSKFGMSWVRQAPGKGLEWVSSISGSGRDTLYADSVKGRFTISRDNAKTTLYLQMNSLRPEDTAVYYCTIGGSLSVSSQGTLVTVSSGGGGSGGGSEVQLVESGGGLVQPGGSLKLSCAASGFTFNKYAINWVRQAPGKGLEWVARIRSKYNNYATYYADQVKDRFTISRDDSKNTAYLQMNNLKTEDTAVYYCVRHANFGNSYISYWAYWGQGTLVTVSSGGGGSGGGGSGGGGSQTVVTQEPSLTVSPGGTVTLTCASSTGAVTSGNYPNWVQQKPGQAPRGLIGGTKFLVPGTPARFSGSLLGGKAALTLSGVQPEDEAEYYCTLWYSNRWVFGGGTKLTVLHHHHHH

B1: cynomolgus CD3ε-Fc (Fc fusion, UniProt Q95LI5 22-117, looked up)
chain: QDGNEEMGSITQTPYQVSISGTTVILTCSQHLGSEAQWQHNGKNKEDSGDRLFLPEFSEMEQSGYYVCYPRGSNPEDASHHLYLKARVCENCMEMD
notes: loaded on streptavidin tips; not shown: Fc part
The molecule B1 gave a Kd in experiment [1] of 7.8 nM.

B2: cynomolgus serum albumin (other, UniProt A2V9Z4 25-608, looked up)
chain: DTHKSEVAHRFKDLGEEHFKGLVLVAFSQYLQQCPFEEHVKLVNEVTEFAKTCVADESAENCDKSLHTLFGDKLCTVATLRETYGEMADCCAKQEPERNECFLQHKDDNPNLPPLVRPEVDVMCTAFHDNEATFLKKYLYEVARRHPYFYAPELLFFAARYKAAFAECCQAADKAACLLPKLDELRDEGKASSAKQRLKCASLQKFGDRAFKAWAVARLSQKFPKAEFAEVSKLVTDLTKVHTECCHGDLLECADDRADLAKYMCENQDSISSKLKECCDKPLLEKSHCLAEVENDEMPADLPSLAADYVESKDVCKNYAEAKDVFLGMFLYEYARRHPDYSVMLLLRLAKAYEATLEKCCAAADPHECYAKVFDEFQPLVEEPQNLVKQNCELFEQLGEYKFQNALLVRYTKKVPQVSTPTLVEVSRNLGKVGAKCCKLPEAKRMPCAEDYLSVVLNRLCVLHEKTPVSEKVTKCCTESLVNRRPCFSALELDEAYVPKAFNAETFTFHADMCTLSEKEKQVKKQTALVELVKHKPKATKEQLKGVMDNFAAFVEKCCKADDKEACFAEEGPKFVAASQAALA
notes: loaded on streptavidin tips
For the molecule B2, binding in experiment [2] was put at a Kd of 7.5 nM.

B3: human CD3ε-Fc (Fc fusion, UniProt P07766 23-126, looked up)
chain: DGNEEMGGITQTPYKVSISGTTVILTCPQYPGSEILWQHNDKNIGGDEDDKNIGSDEDHLSLKEFSELEQSGYYVCYPRGSKPEDANFYLYLRARVCENCMEMD
notes: as for B1
In the case of B3, the affinity in experiment [3], expressed as Kd, was 8 nM.

With B4, the binding result in experiment [4] is reported as “binds”.

B5: 253BH10 trispecific protein (other, not shown: large carriers)
chain: QVQLVESGGGLVQPGESLRLSCAASTNIFSISPMGWYRQAPGKQRELVAAIHGFSTLYADSVKGRFTISRDNAKNTIYLQMNSLKPEDTAVYYCNKVPWGDYHPRNVYWGQGTQVTVSS
notes: also called molecule with the parental CDRs
Regarding B5, the “TDCC EC50, EJM cells” value in experiment [5] came out at 0.0529 nM. Moreover, the Kd in experiment [6] was found to be 27.7 nM.
